Reference: article PMC6549151 (2019)

Target: GPIIb/IIIa (Homo sapiens, UniProt P08514)
Assay: spectrofluorometry titration

B1: RusPep (Rusvikunin-II peptide) (peptide)
chain: PESGRCRGHLRRIYYNLES
B1 showed a Kd of 1600 nM.
